To fix the notation:
B1: TPR t1 (parent)
chain: GACCAAUCUGCCCUCAGAGCUCGAGAACAUCUUCGGAUGCAGAGGAGGCAGGCUUCGGUGGCGCGAUAGCGCCAACGUCCUCAACCUCCAAUGCAUCCCACCACAUGAUGAUGCCUGAAGAGCCUUGGUUUUUUG

Results on 167 variants are retold here after the RNAGym collection of RNA variant scans (doi:10.1073/pnas.2313332121).

Variants of B1 are the subject of the data set. Briefly: polymerase ribozyme fitness, log enrichment relative to wild type (log ratio); higher = more active; in vitro selection for triplet polymerase activity. The method in brief:
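One round of in vitro selection, in triplicate, was applied to PCR-built, transcribed mutant libraries of each subunit of a heterodimeric triplet polymerase ribozyme. The steps were annealing with a biotinylated primer, partner subunit and triplets, incubation frozen at −7 °C, gel excision of extended constructs, streptavidin-bead capture and RT-PCR. Fitness is the logarithm, base 2, of genotype enrichment over wild-type enrichment from inverse-variance-weighted replicate averages of Illumina-sequenced inputs and outputs, keeping genotypes with ≥10 input reads and ≥1 read per output.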
As to C70U G71A, the “polymerase ribozyme fitness (log ratio)” value is -1.05.
In the case of C70U G71C it was -1.67; in that of G71U C97A C115U A119G, -5.37; in that of G71A A74U, -3.83.
In the case of G71A U78C it was -0.782.
Under G71U C72G C123A stands -2.68; under C72G C79A, -0.874.
With G71C G113A A121G U133A, the “polymerase ribozyme fitness (log ratio)” value is -1.06.
In the case of G71C G113C it was -2.72; in that of G71U G135U, -1.02.
Under C70U C124U stands 0.579; under C70U C124A, 1.38.
For the variant G71A A90C G120A, the “polymerase ribozyme fitness (log ratio)” value is -1.97.
Under C70U U129A stands -1.55; under G71A G93C A95C, -2.61; under C70U U87C C89A G120C, -2.9.
Under G71C C101A A121U U126G stands -0.863; under C72A C76G C101A C115A, -1.47; under C70U C123G, 0.306.
In the case of C70U C123U it was 0.707; in that of C70U C123A, -0.0908.
Take G71A A90G: the “polymerase ribozyme fitness (log ratio)” value is -1.65.
In the case of C70U U96C C97U C104A it was -5.19.
As to G71A C79G C124G U125A, the “polymerase ribozyme fitness (log ratio)” value was -3.71.
Under G71U C99G stands -8.12.
In the case of C70U U81C C99A U112A U125C it was -6.54; in that of G71C C85A C101U A105C, -5.59; in that of C72A G113C, -2.03.
In the case of G71C G93A C102A it was -5.09; in that of G71U C94G G113C U126G, -6.21; in that of C72A C79G, -1.13.
Take C72A U129C: the “polymerase ribozyme fitness (log ratio)” value was -0.6.
Under G71A C85U G120C stands 0.00346; under C72A U109A, -4.06.
In the case of G71U G120U, the “polymerase ribozyme fitness (log ratio)” value was -0.136.
In the case of G71U G120A it was 0.754; in that of C70U C102A G127A, -3.84.
In the case of G71U C80G G107U G117A it was -6.69; in that of C70U U78C C101A, -1.6; in that of G71U C98U, -2.33.
Under G71C U92A A119U C124A stands -3.83.
With C72G C82G G93C, the “polymerase ribozyme fitness (log ratio)” value was -1.73.
In the case of C72A C80G C114A C123G U126A it was -6.21; in that of C72A U125A, -0.026; in that of C72A U125C, -1.51.
In the case of G71A A83C G93C A118G it was -2.9; in that of G71A G127U, -0.848; in that of C70U G113A, -1.39.
In the case of G71A C73U C101A U132A it was -2.2; in that of G71U C76G, -2.91; in that of G71U A111U, -3.91.
With C72G C88G U96G, the “polymerase ribozyme fitness (log ratio)” value was -2.68.
As to G71U U129G, the “polymerase ribozyme fitness (log ratio)” value was -0.793.
In the case of G71U C86U C102U it was -2.63.
In the case of C70U C99A A121G it was -5.54; in that of C72G A105G, -1.94.
Under G71A G107A stands -4.98; under C72G A91C U96C C104A, -4.69.
Take G71C G122A: the “polymerase ribozyme fitness (log ratio)” value is -2.06.
Under G71A C124G stands 0.316.
For the variant G71U C80A U116G G117U A119U, the “polymerase ribozyme fitness (log ratio)” value was -7.09.
Under C72A G93U G110U stands -2.37.
Under G71A U112A stands 0.323; under C70U G107U, -4.87.
Under C70U G107A stands -5.06; under C70U G110U G135U, -3.77; under G71C C79U C101U, -0.546.
C72A C104A A105U G120A: the “polymerase ribozyme fitness (log ratio)” value is -2.67.
For G71C G120U, the “polymerase ribozyme fitness (log ratio)” value is -0.52.
In the case of G71U U133G it was 0.225.
In the case of C72A U78A G110C it was -4.71; in that of G71U G93C G117C, -4.78; in that of G71U A83U C99A A105C C123U, -7.02.
Turning to C72G A108C, the “polymerase ribozyme fitness (log ratio)” value is -5.06.
In the case of G71U G127A it was -1.25; in that of G71A U81C C88A C123G G135U, -0.881.
Under G71A C85G stands -2.38.
In the case of G71A C85A it was -2.44; in that of G71U G77U C89A, -2.84; in that of C72A C115G, -2.29.
As to C72G C82U U131G, the “polymerase ribozyme fitness (log ratio)” value is -0.338.
In the case of G71C A111U it was -4.31.
In the case of G71A C114A it was -1.41.
In the case of C72G C86U it was 0.195; in that of C72G C86G, -2.24; in that of C72G C86A, -0.939.
As to G71U G107A, the “polymerase ribozyme fitness (log ratio)” value was -4.04.
In the case of C72G A111G G122A it was -1.48; in that of C70U C98A, -4.77.
G71U U81G C114A: the “polymerase ribozyme fitness (log ratio)” value was -5.63.
In the case of C72A G120C it was 1.31; in that of G71U C115A, 1.51.
G71U G110C: the “polymerase ribozyme fitness (log ratio)” value was -3.69.
In the case of G71U G110A it was -1.39.
As to G71U A75G, the “polymerase ribozyme fitness (log ratio)” value is -0.135.
In the case of C70U G122U it was -0.0756.
In the case of C70U U106A U109G it was -4.62.
In the case of G71A U81A A84U it was -2.93; in that of C70U G117U, -3.24; in that of G71U C86U, -0.637.
Regarding C72G A90U C101A G122A, the “polymerase ribozyme fitness (log ratio)” value was -3.94.
In the case of G71C G93C it was -1.98; in that of G71U G120A C123U U133G, -3.23; in that of C72A C88U G93C, -0.854.
Regarding C70U U92C C97U C123U, the “polymerase ribozyme fitness (log ratio)” value is -0.926.
Under C70U G93A stands -0.708; under C70U G93U, -1.7.
In the case of G71U A119U it was -0.434; in that of G71C C115A, -1.07.
On to G71U C82A C88A, for which the “polymerase ribozyme fitness (log ratio)” value was -1.39.
In the case of G71C G117A it was -1.82.
In the case of C70U G127C it was -2.15; in that of C70U G110A, -1.77.
Under G71C A118U C124G stands 0.835; under C70U U112G, -0.342; under C72A U96G U132A, -0.0408.
C72A U78G U133A: the “polymerase ribozyme fitness (log ratio)” value came out at 0.102.
In the case of C72A C86G G122A it was -2.26; in that of G71C C99U, -4.28; in that of C72A U133A, 0.191.
In the case of G71C U132A it was -0.602; in that of G71C C72G C123G, -5.34.
In the case of C72A U131A it was -0.165; in that of G71U U78G, -0.594.
As for G71U U78C, the “polymerase ribozyme fitness (log ratio)” value was -0.468.
Under C72A U81G G120U stands -0.653.
On to C70U U96G U125A, for which the “polymerase ribozyme fitness (log ratio)” value was -1.32.
Under G71A C82A C89U stands -1.01; under C72G C88A A90U, -2.14.
Under G71C U87A stands -2.35; under C72A C73G C86U C115A C123G, -0.582.
Turning to G71A C73G G110A, the “polymerase ribozyme fitness (log ratio)” value is -7.06.
Under C72A C85U C104U stands 0.563; under G71A, -0.673.
Under G71U stands -0.118.
In the case of G71C it was -1.04; in that of C72A G77A C89U U106C, -1.11.
On to C72A U87G, for which the “polymerase ribozyme fitness (log ratio)” value was 0.194.
In the case of C72A C88A G120U it was -0.866.
Under G71C U81A G120U stands -1.99; under G71C C102G C114U C115U G120C, -5.82; under G71U C102A, -2.25.
As to C70U G135A, the “polymerase ribozyme fitness (log ratio)” value is -1.42.
In the case of C72A C89U U92G it was -1.39; in that of G71A C123G, 1.1; in that of G71U G93A, -0.562.
Under G71U G93C stands -2.12; under C72A U81C U109A G110U U112G A121U U125A, -6.45; under G71A A111C A118U, -0.257.
Consider G71A C94U C102A U112G G120A, for which the “polymerase ribozyme fitness (log ratio)” value is -4.87.
In the case of G71C C114G it was -4.37; in that of C72A A105U G122A, -2.49; in that of C70U U131G, -2.36.
Under G71U G77C U126C stands -2.3; under C70U U125G G127A, -1.83.
As to G71A A75G C104U, the “polymerase ribozyme fitness (log ratio)” value was -0.612.
For the variant C70U U130G, the “polymerase ribozyme fitness (log ratio)” value is -1.24.
In the case of C70U U81A U116G it was -3.38; in that of C72A C102A, -1.51; in that of C72G A90G, -1.28.
With C70U G110U U112G, the “polymerase ribozyme fitness (log ratio)” value is -6.05.
For G71C C94A G113C, the “polymerase ribozyme fitness (log ratio)” value was -4.44.
For C70U C115U C123G, the “polymerase ribozyme fitness (log ratio)” value is -1.96.
In the case of G71U C99U C115A it was -2.82; in that of C72A A103U, -4.58; in that of G71C U112G, -1.66.
In the case of C72A C80U it was 0.231.
